Experimental data taken from US20080207521A1, “PEPTIDE LIGAND TO IMPAIR CANCER CELL MIGRATION” (priority 2005, published 2008).

What was measured:
[1] = molecular target: T1, Frz-5 receptor (Homo sapiens, UniProt Q13467); test: cell-based or functional assay
[2] = molecular target: T2, Src kinase (Homo sapiens, UniProt P12931); test: Src activity in MDA-MB-468 cells (Western blot); assay type: cell-based; settings: PP1 10 μM for last 30 min; with or without serum
T2 construct: Src activity in MDA-MB-468 cells in the absence and presence of PP1 and/or serum; endogenous in cells; host or cells: MDA-MB-468
Procedure: Western blot analysis was performed to evaluate the protein expressions of Wnt-5a, EGF-receptor, Src and Frz-2 and 5 in HB2 and MDA-MB-468 cells. […] The Wnt-5a Ab has been produced in the laboratory, as previously described (9, 10). The cells were lysed and boiled in two times concentrated Laemmli buffer. The protein content was determined in each sample and adjusted to ensure loading of equal amounts of protein in each lane, 50 mM DTT was then added and the lysates were boiled for 10 min, before separation by SDS gel electrophoresis. The proteins were subsequently transferred to PVDF membranes. The membranes were blocked in 3% BSA or 5% non-fat milk for 45 min, incubated with the primary Ab for 1 h (1:2,000 for Wnt-5a, 1:1,000 for activated EGF-receptor, total EGF-receptor, actin, active Src and total Src, and 1:5,000 for Frz-2 and Frz-5), and then for 1 h with a horseradish peroxidase conjugated secondary Ab. The Ab-antigen complex was detected using an enhanced chemiluminescence detection kit from Amersham Pharmacia Biotech (Uppsala, Sweden). In the case of re-probing, the membranes were stripped with a Reblot Strong solution from Chemicon International (Temecula, Calif.).
(A) Effect of pre-treatment (30 min) with the Src-inhibitor PP1 (10 μM) on adhesion induced DDR1 phosphorylation in MDA-MB-468 cells. The blots shown are representative of 3 separate experiments. […]

[3] = test system: DDR1; test: DDR1 phosphorylation in MDA-MB-468 cells (immunoprecipitation/Western blot); assay type: cell-based, human
Procedure: The phosphorylation status of DDR1 was analyzed as previously described (12), with the following modifications. After serum-depletion for 16 h, the cells were detached with Versene and then allowed to adhere to collagen I for 60 (MDA-MB-468) or 90 min (HB2) at 37° C. The experiments were terminated by lysing both adherent and non-adherent cells with a lysis buffer (50 mM Tris pH 7.4, 1% Triton-X, 5 mM EDTA, 5 mM EGTA, 50 mM NaCl, 10 μg/ml aprotinin, 2.5 mM benzamidine, 1 mM pefabloc, 1 μg/ml leupeptin and 1 mM Na3VO4). For immunoblotting an anti-DDR1 rabbit polyclonal Ab, sc-532 (Santa Cruz Biotech, Santa Cruz, Calif.) was used at a dilution of 1:10,000. The Ab recognizes DDR1b/c, which is essential because collagen only induces phosphorylation of the b or c isoforms of DDR1 in mammary epithelial cells (10).
Peptide-induced effects on adhesion and DDR1 phosphorylation in MDA-MB-468 breast cancer cells. (A) Western blot analysis of Wnt-5a protein expression in Wnt-5a antisense and Wnt-5a over-expressing HB2 cells in comparison to MDA-MB-468 tumour cells. […] The amounts of adhesive cells were analyzed as described in the methods and the results are given as means±SEM of 8 separate experiments. […] The amount of adherent cells was estimated as in panel A and expressed as means±SEM of 6 separate experiments, ns=not significant, ** p<0.01 and *** p<0.001. […]

[4] = test system: Wnt-5a antisense HB2 cells; test: Migration of Wnt-5a antisense HB2 cells in modified Boyden chamber; assay type: cell-based, human; settings: recombinant Wnt-5a 0.4 μg/ml; 18 h
Procedure: Cell migration analyses were performed in a modified Boyden chamber with a polycarbonate membrane (10 μm thick with a porous diameter of 8.0 μm) separating the two chambers (Transwell®; Costar, Cambridge, Mass.). As indicated in some experiments the membranes were coated with collagen by adding collagen-I (10 μg/ml) diluted in 0.25% acetic acid to the upper chamber for 1 h at 37° C., after which it was washed three times with PBS. Each experiment was initiated by detaching the cells by Versene treatment for 10-20 min at 37° C., washed, and re-suspended as a single cell suspension in serum-free DMEM medium supplemented with 0.5% BSA. Together with the indicated agonist a 0.2 ml cell suspension (containing 25,000 MDA-MB-468 or 50,000 HB2 cells) was then added to the upper chamber of the transwell. The lower chamber was filled with 0.6 ml serum-free but BSA-containing DMEM medium supplemented with 1 ng/ml of the chemoattractant IGF-I. As a control, IGF-I was excluded in some wells in each separate experiment. The cells were allowed to migrate in the Boyden chamber for 18 h at 37° C. in a humidified atmosphere of 95% air and 5% CO2. The experiments were terminated by removing the non-migratory cells with a cotton-tipped applicator from the upper surface of the membranes. The remaining cells on the lower surface that had migrated through the membrane were stained for 20 min with 0.5% crystal violet diluted in 20% methanol/80% water. After washing the membranes the number of stained cells per membrane and well was counted in an inverted microscope. The value from each separate experiment represents the median value of three individual wells.
Effects of the selected and pure peptides on the ability of Wnt-5a antisense HB2 cells to adhere and migrate. (A-E) The ability of the cells to adhere to collagen type I-coated wells was analyzed as previously described for FIG. 2 in the absence or presence of different concentrations of the indicated peptide. (F) Effect of the indicated peptides on migration of Wnt-5a antisense HB2 in a transwell migration assay. The cells were allowed to migrate for 18 h in the absence or presence of 100 μM peptide or 0.4 μg/ml of recombinant Wnt5a. The data are given as means±SEM of 6-7 separate experiments, each performed in triplicate. * p<0.05 and ** p<0.01.

[5] = molecular target: T1, Frz-5 receptor; test: MDA-MB-468 cell migration with Frz-5 receptor blocking Ab or control anti-Frz-2 Ab; assay type: cell-based; set-up: endogenous in cells; host or cells: MDA-MB-468; settings: recombinant Wnt-5a 0.4 μg/ml; Ab 5 μg/ml; 18 h
Procedure: The peptide […], corresponding to amino acids 198-217 in the ectodomain of the human Frz-5 receptor was as previously described used to generate a Frz-5 receptor blocking Ab (13). The peptide […], corresponding to amino acids 202-220 in the ectodomain of the human Frz-2 receptor, was used to generate a control anti-Frz-2 Ab. The synthesis of the peptides (the italic letters indicate the Frz-5 and Frz-2 sequences, the cysteine was added for raising and purifying the Ab) and the production of rabbit anti-Frz-5 and anti-Frz-2 antisera were managed by AgriSera (Vännäs, Sweden; permit A69-04 from Ume(a) animal ethic committe). The antisera were affinity purified in the laboratory by coupling the respective peptide antigen to Sulfolink Sepharose over which the respective antisera was then eluted.
Cell migration analyses were performed in a modified Boyden chamber with a polycarbonate membrane (10 μm thick with a porous diameter of 8.0 μm) separating the two chambers (Transwell®; Costar, Cambridge, Mass.). As indicated in some experiments the membranes were coated with collagen by adding collagen-I (10 μg/ml) diluted in 0.25% acetic acid to the upper chamber for 1 h at 37° C., after which it was washed three times with PBS. […] After washing the membranes the number of stained cells per membrane and well was counted in an inverted microscope. […]

T1 sequence (Q13467 27-585): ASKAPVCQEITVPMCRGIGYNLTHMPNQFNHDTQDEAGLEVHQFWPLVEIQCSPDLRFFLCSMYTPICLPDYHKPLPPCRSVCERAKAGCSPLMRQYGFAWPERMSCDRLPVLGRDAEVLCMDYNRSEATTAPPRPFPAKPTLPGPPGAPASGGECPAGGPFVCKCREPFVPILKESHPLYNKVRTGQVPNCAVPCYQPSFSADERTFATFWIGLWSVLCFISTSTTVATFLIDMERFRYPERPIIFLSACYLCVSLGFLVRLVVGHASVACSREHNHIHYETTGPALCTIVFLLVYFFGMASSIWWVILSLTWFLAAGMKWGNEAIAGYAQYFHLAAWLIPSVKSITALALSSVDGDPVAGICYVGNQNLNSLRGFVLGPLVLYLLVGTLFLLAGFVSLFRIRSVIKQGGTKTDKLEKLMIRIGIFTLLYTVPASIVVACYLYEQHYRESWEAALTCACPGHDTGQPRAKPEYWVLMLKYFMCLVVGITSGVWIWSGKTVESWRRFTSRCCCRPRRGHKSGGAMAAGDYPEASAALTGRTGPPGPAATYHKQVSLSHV
T2 sequence (P12931 whole entry): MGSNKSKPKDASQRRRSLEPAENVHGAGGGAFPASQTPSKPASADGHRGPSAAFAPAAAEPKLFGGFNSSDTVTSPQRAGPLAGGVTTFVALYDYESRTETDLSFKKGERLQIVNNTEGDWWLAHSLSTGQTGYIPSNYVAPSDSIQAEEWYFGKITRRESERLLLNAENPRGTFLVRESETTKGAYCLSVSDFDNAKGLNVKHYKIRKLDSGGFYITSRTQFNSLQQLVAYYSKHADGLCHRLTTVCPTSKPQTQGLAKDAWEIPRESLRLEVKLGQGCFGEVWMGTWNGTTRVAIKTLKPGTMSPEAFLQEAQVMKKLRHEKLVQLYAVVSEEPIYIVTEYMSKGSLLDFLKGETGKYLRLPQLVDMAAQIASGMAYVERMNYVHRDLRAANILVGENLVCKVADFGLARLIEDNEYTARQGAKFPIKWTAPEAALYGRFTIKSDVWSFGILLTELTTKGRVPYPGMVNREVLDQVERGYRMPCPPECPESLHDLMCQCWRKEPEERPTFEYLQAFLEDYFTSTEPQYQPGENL

## formylated tripeptide fMet-Leu-Phe
[1]
  MDA-MB-468 cell adhesion to collagen I: 15.7

## Cc1ccc(-c2nn(C(C)(C)C)c3ncnc(N)c23)cc1 [PP1, 4-amino-5-(4-methyl-phenyl)-7-(t-butyl)pyrozolo-D-3,4-pyrimidine, reference compound]
[2]
  Src kinase activity: abolished
[3]; PP1 10 μM for 30 min
  basal phosphorylation of DDR1: abolished the basal phosphorylation of DDR1

B1: recombinant Wnt-5a: recombinant mouse Wnt-5a (R&D Systems) (protein)
chain: IIGAQPLCSQLAGLSQGQKKLCHLYQDHMQYIGEGAKTGIKECQYQFRHRRWNCSTVDNTSVFGRVMQIGSRETAFTYAVSAAGVVNAMSRACREGELSTCGCSRAARPKDLPRDWLWGGCGDNIDYGYRFAKEFVDARERERIHAKGSYESARILMNLHNNEAGRRTVYNLADVACKCHGVSGSCSLKTCWLQLADFRKVGDALKEKYDSAAAMRLNSRGKLVQVNSRFNSPTTQDLVYIDPSPDYCVRNESTGSLGTQGRLCNKTSEGMDGCELMCCGRGYDQFKTVQTERCHCKFHWCCYVKCKKCTEIVDQFVCK
modifications: left off: small tags and cut ends
[4]
  migration: effectively decreased the migration
[5]
  decrease in migration in presence of anti-Frz-5 or anti-Frz-2 Ab: mediated via the Frz-5 receptor
[3]; recombinant Wnt-5a 0.8 μg/ml, 60 min on collagen I
  level of DDR1 phosphorylation: neither the pure peptides, CM nor recombinant Wnt-5a were able to further increase
